Measurements: patent US20220153874A1 (NEURIMMUNE, published 2022)
Ends that are not written are not given here.

Tests used:
(GA)8 repeats = target: T1, (GA)8 repeats; assay: SPR, inset: Fab bound (RU) plotted against [Fab] from 0 to 20000 nM with a fitted saturation curve
T1 construct: also called poly-(GA)8; GA (e.g., poly(GA))
T1 peptide: GAGAGAGAGAGAGAGA

[1] = target: T2, synthesized dipeptide repeat protein (GA)15: H-CHHHHHH(GA)15-OH; assay: indirect ELISA, coated uncoupled peptide
T2 construct: also called poly-GA DPR peptide; uncoupled (GA)15 peptide
T2 peptide: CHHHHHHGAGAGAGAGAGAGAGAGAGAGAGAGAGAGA
Description: (§1) In brief, poly-GA dipeptide repeat proteins were synthesized and purified by Schafer-N(Copenhagen, Denmark): (GA)₁₅: H-CHHHHHH(GA)₁₅-OH (SEQ ID NO: 61). Poly-GA DPR protein peptides were then conjugated via a bifunctional linker (SMCC) to bovine serum albumin (BSA). 96-well microplates (Corning Incorporated, Corning, USA) were coated with poly-GA BSA-coupled or uncoupled dipeptide repeat protein peptides at a concentration of 5 μg/ml in coating buffer (15 mM Na₂CO₃, 35 mM NaHCO₃, pH 9.42). Non-specific binding sites were blocked for 1 h at RT with PBS/0.1% Tween®-20 containing 2% BSA (Sigma-Aldrich, Buchs, Switzerland). […] Binding was determined by measurement of HRP activity in a standard colorimetric assay.
(§2) EC₅₀ values were estimated by non-linear regression using GraphPad Prism software (San Diego, USA).

[2] = target: T2, synthesized dipeptide repeat protein …; assay: BLI (Octet RED96), peptide immobilised on AR2G sensor, IgG as analyte, 1:1 model
Description: Poly-GA dipeptide repeat protein peptides were synthesized and purified by Schafer-N (Copenhagen, Denmark): (GA)₁₅: H-CHHHHHH(GA)₁₅-OH (SEQ ID NO: 61). Pure, lyophilized (GA)₁₅ (SEQ ID NO: 66) was dissolved in DMSO (Sigma-Aldrich, Buchs, Switzerland) at a concentration of 10 mg/ml and stored at −20° C. In brief, bio-layer interferometry experiments were performed on Octet RED96 instrument (Pall ForteBio LLC, Fremont, USA). Octet amine-reactive (AR2G) biosensors were used for covalent immobilization of (GA)₁₅ (SEQ ID NO: 66) dipeptide repeat protein peptides. AR2G biosensors were activated with EDC (1-Ethyl-3-[3-dimethylaminopropyl] carbodiimide hydrochloride; 20 mM in water; Pall ForteBio LLC, Fremont, USA) and s-NHS (N-hydroxysulfosuccinimide; 10 mM in water; Pall ForteBio LLC, Fremont, USA) for 300 s, followed by loading of the biosensor surface with 5 μg/ml of (GA)₁₅ (SEQ ID NO: 66) peptides in 10 mM acetate buffer pH 6 (Pall ForteBio LLC, Fremont, USA) for 600 s. […] Antibody dissociation was evaluated in kinetics buffer for 800 s. All binding data were referenced by collecting data with a PBS only reference. Data analysis was performed by using the Octet system software (Pall ForteBio LLC, Fremont, USA) with simultaneous Kₐ/Kd global fitting with 1:1 interaction model. BLI sensorgrams were drawn with the Prism software from GraphPad (San Diego, USA) upon fitting.

[3] = target: T3, BSA-coupled (GA)15 dipeptide repeat protein peptide (H-CHHHHHH(GA)15-OH conjugated via SMCC to bovine serum … (bovine, UniProt P02769 25-607, conjugated via a bifunctional linker (SMCC) to bovine serum albumin (BSA))); assay: indirect ELISA, coated BSA-coupled peptide
T3 construct: also called BSA-coupled peptide; BSA-conjugated poly-GA
Description: as §1, §2

[4] = target: T4, synthesized dipeptide repeat protein (GA)6: H-(GA)6HHHHHH-NH2; assay: indirect ELISA, peptide coated at 50 µg/ml
T4 peptide: H-GAGAGAGAGAGAHHHHHH-NH2
Description: (§3) In brief, Dipeptide repeat protein peptides were synthesized and purified by Schafer-N(Copenhagen, Denmark): GA₂₀: H-(GA)₂₀HHHHHH-NH₂ (SEQ ID NO: 71); GA₁₀: H-(GA)₁₀HHHHHH-NH₂ (SEQ ID NO: 72); GA₆: H-(GA)₆HHHHHH-NH₂ (SEQ ID NO: 73); GA₅: H-(GA)₅HHHHHH-NH₂ (SEQ ID NO: 74); GA₄: H-(GA)₄HHHHHH-NH₂ (SEQ ID NO: 75); GA₃: H-(GA)₃HHHHHH-NH₂ (SEQ ID NO: 76); GA₂: H-(GA)₂HHHHHH-NH₂ (SEQ ID NO: 77). 96-well microplates (Corning Incorporated, Corning, USA) were coated with dipeptide repeat protein peptides at a concentration of 50 μg/ml in coating buffer (15 mM Na₂CO₃, 35 mM NaHCO₃, pH 9.42). Non-specific binding sites were blocked for 1 h at RT with PBS/0.1% Tween®-20 containing 2% BSA (Sigma-Aldrich, Buchs, Switzerland). […] Binding was determined by measurement of HRP activity in a standard colorimetric assay. EC₅₀ values were estimated by non-linear regression using GraphPad Prism software (San Diego, USA).
(§4) High affinity binding was detected for poly-GA DPRs harboring 10 (SEQ ID NO: 79) or 20 (GA)-repeats (SEQ ID NO: 82), reflected in an EC₅₀ in the subnanomolar range (Table 5, FIG. 6).

[5] = target: T5, synthesized dipeptide repeat protein (GA)10: H-(GA)10HHHHHH-NH2 (C-terminal amide (-NH2)); assay: indirect ELISA, peptide coated at 50 µg/ml
T5 peptide: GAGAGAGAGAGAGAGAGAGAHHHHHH
Description: as §3, §4

[6] = target: T6, synthesized dipeptide repeat protein (GA)20: H-(GA)20HHHHHH-NH2 (C-terminal amide (-NH2)); assay: indirect ELISA, peptide coated at 50 µg/ml
T6 peptide: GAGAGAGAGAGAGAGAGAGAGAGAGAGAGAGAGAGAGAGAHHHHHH
Description: as §3, §4

[7] = target: T2, synthesized dipeptide repeat protein …; assay: indirect ELISA, coated peptide
Description: In brief, dipeptide repeat proteins were synthesized and purified by Schafer-N(Copenhagen, Denmark): (GA)₁₅: H-CHHHHHH(GA)₁₅-OH (SEQ ID NO: 61); (GP)₁₅: H-C(GP)₁₅-OH (SEQ ID NO: 62); (GR)₁₅: H-C(GR)₁₅-OH (SEQ ID NO: 63); (PA)₁₅: H-C(PA)₁₅-OH (SEQ ID NO: 64); (PR)₁₅: H—C(PR)₁₅-OH (SEQ ID NO: 65). 96-well microplates (Corning Incorporated, Corning, USA) were coated with dipeptide repeat protein peptides at a concentration of either 5 μg/ml or 20 μg/ml in coating buffer (15 mM Na₂CO₃, 35 mM NaHCO₃, pH 9.42). Non-specific binding sites were blocked for 1 h at RT with PBS/0.1% Tween®-20 containing 2% BSA (Sigma-Aldrich, Buchs, Switzerland). […] Binding was determined by measurement of HRP activity in a standard colorimetric assay.
as §2

synthetic biotin-8xGA = target: T7, synthetic biotin-8xGA (also: biotin, position not given here); assay: SPR (Biacore T200), biotin-8xGA captured on Biotin CAPture chip, Fab as analyte, 1:1 model
T7 construct: also called synthetic 8×GA; poly-(GA)8 peptide
T7 peptide: GAGAGAGAGAGAGAGA
Description: Variant Fabs were assessed for binding to synthetic poly-GA by SPR, using a Biacore T200 instrument (GE Healthcare). Synthetic biotin-8xGA was captured on a Biotin CAPture chip (GE Healthcare) at […] from solutions at 5 ng/mL in SPR buffer (10 mM HEPES, pH 7.2, 150 mM NaCl, 3.4 mM EDTA, 0.05% BSA, 0.005% surfactant P20) using reagents and protocols provided by the manufacturer. A series of solutions of variant antibody Fab fragments at increasing concentrations of 1.23, 3.7, 11, 33, and 100 nM in SPR buffer were injected over the biotin-8xGA coated sensor chip for 4 min each at 30 μL/min followed by buffer wash, and the binding response relative to a reference sensor with no biotin-8xGA was recorded during injections and for 15 min after the final injection. Data were analyzed with Biacore T200 Evaluation Software v3.0 using a 1:1 binding model.

T3 sequence (P02769 25-607 limits assumed): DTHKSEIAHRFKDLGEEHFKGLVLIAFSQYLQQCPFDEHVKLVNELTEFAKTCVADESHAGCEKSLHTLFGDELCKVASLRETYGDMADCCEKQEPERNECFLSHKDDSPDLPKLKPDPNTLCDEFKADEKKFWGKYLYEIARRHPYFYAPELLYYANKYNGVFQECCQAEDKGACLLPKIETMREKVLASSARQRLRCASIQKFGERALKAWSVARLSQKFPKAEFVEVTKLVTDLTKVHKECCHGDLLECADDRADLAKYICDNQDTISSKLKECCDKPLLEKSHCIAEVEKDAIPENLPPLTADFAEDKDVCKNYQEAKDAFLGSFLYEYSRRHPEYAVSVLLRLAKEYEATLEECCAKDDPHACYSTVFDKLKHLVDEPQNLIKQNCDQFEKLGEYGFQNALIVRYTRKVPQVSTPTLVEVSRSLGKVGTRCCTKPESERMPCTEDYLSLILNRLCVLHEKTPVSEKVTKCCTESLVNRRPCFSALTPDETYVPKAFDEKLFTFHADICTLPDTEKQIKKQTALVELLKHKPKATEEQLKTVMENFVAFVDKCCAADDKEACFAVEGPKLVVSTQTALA

B1: Fab fragment of DPR Ab-1 (Fab, V domains shown)
VH: QVQLVESGGGVVQPGRSLRLSCAASGFTFSNHAMHWVRQAPGKGLEWVAVISYDGENTYYADSIEGRFTISRDNFKNTLFLQMYSLTADDTAMYFCARGGRRGHFTSYYLDYWGQGTLVTVSS
VL: DIQMTQSPSSLSASVGDRVTITCRASQNIDKYLNWYQQIPGKAPKLLIYAASSLHSGVPSRFSGSGSGTDFSLTISSLQPEDFAIYYCQQSYSSFRTFGQGTKLEIK
notes: also called DPR Ab-1 Fab
Kd ((GA)8 repeats): 4600 nM

B2: NI-308.5J10 recombinant human-derived monoclonal antibody (human IgG1, kappa) (antibody, V domains shown)
VH: SETLSLTYTVLGGSVSDYYWSCIRQPAGKGLEWIGRTYTNGKTTYTYNPSLESRLSLSIDTSMNQFSLKLTSVTAADTAVYYCARWGAVTGDYYYGMDVWGPGTLVTVSS
VL: EIVLTQSPLSLSVTPGEPASISCRSPRSLLHTNGYTYLDWYLQRPGQSPQLLIFLASNRASGVPDRFSGSGSGTNFTLRISGVEADDVGVYYCMQGLQPSWTFGQGTKVEIKR
notes: Full hIgG1 heavy chain (plasmid SDD151) and kappa light chain (plasmid SDD152); also called 5J10 hIgG1
EC50 [1]: 0.23 nM
Kd [2]: 0.15 nM
koff [2]: 2.4e-05 s⁻¹
kon [2]: 163000 M⁻¹ s⁻¹
EC50 [3]: 0.16 nM
EC50 [4]: 13.8 nM
EC50 [5]: 0.3 nM
EC50 [6]: 0.29 nM
EC50 [7]: 0.26 nM

B3: NI-308.5J10 variant WT-Fab-6His / N75D light chain (Fab, V domains shown)
VH: SETLSLTYTVLGGSVSDYYWSCIRQPAGKGLEWIGRTYTNGKTTYTYNPSLESRLSLSIDTSMNQFSLKLTSVTAADTAVYYCARWGAVTGDYYYGMDVWGPGTLVTVSS
VL: EIVLTQSPLSLSVTPGEPASISCRSPRSLLHTNGYTYLDWYLQRPGQSPQLLIFLASNRASGVPDRFSGSGSGTDFTLRISGVEADDVGVYYCMQGLQPSWTFGQGTKVEIKR
notes: Plasmids SDD178 and SDD177; also called LC N75D Fab; 5J10-LC N75D Fab
Kd (synthetic biotin-8xGA): 26 nM
koff (synthetic biotin-8xGA): 0.0059 s⁻¹
kon (synthetic biotin-8xGA): 230000 M⁻¹ s⁻¹

B4: NI-308.5J10 variant G55S-Fab-6His / N75D light chain (Fab, V domains shown)
VH: SETLSLTYTVLGGSVSDYYWSCIRQPAGKGLEWIGRTYTNSKTTYTYNPSLESRLSLSIDTSMNQFSLKLTSVTAADTAVYYCARWGAVTGDYYYGMDVWGPGTLVTVSS
VL: EIVLTQSPLSLSVTPGEPASISCRSPRSLLHTNGYTYLDWYLQRPGQSPQLLIFLASNRASGVPDRFSGSGSGTDFTLRISGVEADDVGVYYCMQGLQPSWTFGQGTKVEIKR
notes: Plasmids SDD181 and SDD177; also called HC G55S/LC N75D Fab; 5J10-LC N75D, HC G55S Fab
Kd (synthetic biotin-8xGA): 24 nM
koff (synthetic biotin-8xGA): 0.0044 s⁻¹
kon (synthetic biotin-8xGA): 180000 M⁻¹ s⁻¹

B5: NI-308.5J10 variant N54S-Fab-6His / N75D light chain (Fab, V domains shown)
VH: SETLSLTYTVLGGSVSDYYWSCIRQPAGKGLEWIGRTYTSGKTTYTYNPSLESRLSLSIDTSMNQFSLKLTSVTAADTAVYYCARWGAVTGDYYYGMDVWGPGTLVTVSS
VL: EIVLTQSPLSLSVTPGEPASISCRSPRSLLHTNGYTYLDWYLQRPGQSPQLLIFLASNRASGVPDRFSGSGSGTDFTLRISGVEADDVGVYYCMQGLQPSWTFGQGTKVEIKR
notes: Plasmids SDD179 and SDD177; also called HC N54S/LC N75D Fab; 5J10-LC N75D, HC N54S Fab
Kd (synthetic biotin-8xGA): 21 nM
koff (synthetic biotin-8xGA): 0.006 s⁻¹
kon (synthetic biotin-8xGA): 290000 M⁻¹ s⁻¹

B6: NI-308.5J10 variant G55T-Fab-6His / N75D light chain (Fab, V domains shown)
VH: SETLSLTYTVLGGSVSDYYWSCIRQPAGKGLEWIGRTYTNTKTTYTYNPSLESRLSLSIDTSMNQFSLKLTSVTAADTAVYYCARWGAVTGDYYYGMDVWGPGTLVTVSS
VL: EIVLTQSPLSLSVTPGEPASISCRSPRSLLHTNGYTYLDWYLQRPGQSPQLLIFLASNRASGVPDRFSGSGSGTDFTLRISGVEADDVGVYYCMQGLQPSWTFGQGTKVEIKR
notes: Plasmids SDD182 and SDD177; also called HC G55T/LC N75D Fab; 5J10-LC N75D, HC G55T Fab
Kd (synthetic biotin-8xGA): 22 nM
koff (synthetic biotin-8xGA): 0.0044 s⁻¹
kon (synthetic biotin-8xGA): 200000 M⁻¹ s⁻¹

B7: NI-308.5J10 WT Fab-6His (WT-Fab-6His / WT light chain) (Fab, V domains shown)
VH: SETLSLTYTVLGGSVSDYYWSCIRQPAGKGLEWIGRTYTNGKTTYTYNPSLESRLSLSIDTSMNQFSLKLTSVTAADTAVYYCARWGAVTGDYYYGMDVWGPGTLVTVSS
VL: EIVLTQSPLSLSVTPGEPASISCRSPRSLLHTNGYTYLDWYLQRPGQSPQLLIFLASNRASGVPDRFSGSGSGTNFTLRISGVEADDVGVYYCMQGLQPSWTFGQGTKVEIKR
notes: The heavy chain is VH-CH1 with a C-terminal hexahistidine tag; also called 5J10 Fab
Kd (synthetic biotin-8xGA): 28 nM
koff (synthetic biotin-8xGA): 0.0078 s⁻¹
kon (synthetic biotin-8xGA): 270000 M⁻¹ s⁻¹

B8: NI-308.5J10 variant N54T-Fab-6His / N75D light chain (Fab, V domains shown)
VH: SETLSLTYTVLGGSVSDYYWSCIRQPAGKGLEWIGRTYTTGKTTYTYNPSLESRLSLSIDTSMNQFSLKLTSVTAADTAVYYCARWGAVTGDYYYGMDVWGPGTLVTVSS
VL: EIVLTQSPLSLSVTPGEPASISCRSPRSLLHTNGYTYLDWYLQRPGQSPQLLIFLASNRASGVPDRFSGSGSGTDFTLRISGVEADDVGVYYCMQGLQPSWTFGQGTKVEIKR
notes: Plasmids SDD180 and SDD177; also called HC N54T/LC N75D Fab; 5J10-LC N75D, HC N54T Fab
Kd (synthetic biotin-8xGA): 30 nM
koff (synthetic biotin-8xGA): 0.0076 s⁻¹
kon (synthetic biotin-8xGA): 260000 M⁻¹ s⁻¹
